From publication PMC8402609 (Vaccines, 2021)

Columns and labels:
Experiment in all cases: SPR
Conditions in all cases: both partners purified
[1] = molecular target: T1, 3D7 merozoite surface protein 2 (MSP2) (Plasmodium falciparum 3D7, UniProt P50498)
T1 construct: also called 3D7 MSP2; 3D7-MSP2

[2] = molecular target: T2, 3D7-MSP2(207-222) (WT) 16-residue peptide (Plasmodium falciparum 3D7)
T2 construct: source: synthetic peptide (Fmoc solid phase, in-house, reverse-phase purified)
T2 chain: SQKECTDGNKENCGAA

[3] = molecular target: T3, 8-residue peptide 3D7-MSP2(215-222), minimal 4D11 epitope (Plasmodium falciparum 3D7)
T3 construct: source: synthetic peptide
T3 chain: NKENCGAA

T1 sequence (P50498 21-246): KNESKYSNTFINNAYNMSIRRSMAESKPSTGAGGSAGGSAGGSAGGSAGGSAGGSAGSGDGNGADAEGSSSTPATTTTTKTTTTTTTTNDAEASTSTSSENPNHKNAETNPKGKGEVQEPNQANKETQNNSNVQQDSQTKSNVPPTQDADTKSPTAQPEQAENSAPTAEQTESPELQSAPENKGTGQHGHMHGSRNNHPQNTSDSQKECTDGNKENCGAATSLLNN

B1: mouse monoclonal antibody 4D11 IgG (antibody, V domains shown)
VH: QVRLQQSGAELVKPGASVKLSCTASGFNIKDDYMHWVKQRPEQGLEWIGRIDPANGNTQYAPKFQDKATITADTSSNTAYLQLTSLTSEDTAVYYCARGGLLRWGQGTSVTVSS
VL: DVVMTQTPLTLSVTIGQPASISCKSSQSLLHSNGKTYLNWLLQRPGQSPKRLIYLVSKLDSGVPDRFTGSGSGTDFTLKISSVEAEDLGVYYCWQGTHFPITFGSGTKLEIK
- binding result [1]: binds
- Kd [2]: 900 nM
- Kd [3]: 240 nM
